Molecular target: nLUC-TaPYL-1D (Triticum aestivum (bread wheat))
Assay: split reporter (BiFC, NanoBiT); LCI of cLUC-TaPP2C-7A with nLUC-TaPYL-1D in N. benthamiana leaves with a third protein co-expressed (TN1-GFP, tn1-GFP or GFP empty vector); relative luminescence, GFP EV combination set to 1

- percent decrease of LUC intensity of cLUC-TaPP2C-7A/nLUC-TaPYL-1D against the GFP EV samples: > 50%
Substance: TN1-GFP (natural protein)

Source: PMC9929037
